Experimental data taken from the RNAGym collection of RNA variant scans (doi:10.7554/elife.80360).

B1: HDV Ribozyme (parent)
chain: GGCCGGCAUGGUCCCAGCCUCCUCGCUGGCGCCGGCUGGGCAACAUUCCGAGGGGACCGUCCCCUCGGUAAUGGCGAAUGGGACCCA

Variants of: B1
Assay: self-cleavage, relative activity (ratio to wild type); higher = more cleavage; co-transcriptional

Variant | self-cleavage
GGCCGGCAUGGUCCCAGCUUCCUCGCUGGCGCCGGCUGGGCAACAUUCCGAGGGGACCGUCCCCUCGGUAAAGGCGAAUGGGACCCA [C19U U72A] | 0.0504
GGCCGGCAUGGUCCCAGCGUCCUCGCUGGCGCCGGCUGGGCAACAUGCCGAGGGGACCGUCCCCUCGGUAAUGGCGAAUGGGACCCA [C19G U47G] | 0
GGCCGGCAUGGUCCCAGCUUCCUCGCUGGCGCCGGCUGGGCAACAUUCUGAGGGGACCGUCCCCUCGGUAAUGGCGAAUGGGACCCA [C19U C49U] | 0.131
GGCCGGCAUGGUCCCAGCUUCCUCGCUGGCGCCGGCUGGGCAACAUUCCGAGGGGAACGUCCCCUCGGUAAUGGCGAAUGGGACCCA [C19U C57A] | 0.0886
GGCCGGCAUGGUCCCAGCUUCCUCGCUGGCGCCGGCUGGGCAACAUUCCGAGGGGACCGUCCCCUCGGUAAUGGCGAUUGGGACCCA [C19U A78U] | 0.111
GGCCGGCAUGGUCCCAGCUUCCUCGCUGGCGCCGGCUGGGCAAUAUUCCGAGGGGACCGUCCCCUCGGUAAUGGCGAAUGGGACCCA [C19U C44U] | 0.0852
GGCCGGCAUGGUCCCAGCUUCCUCGCUGGCGCCGGCUGGGCAAAAUUCCGAGGGGACCGUCCCCUCGGUAAUGGCGAAUGGGACCCA [C19U C44A] | 0
GGCCGGCAUGGUCCCAGCUUCCUCGCUGGCGCCGGCUGGGCAACAUUCCGAGGGGACCGUCCCCUCGGUAUUGGCGAAUGGGACCCA [C19U A71U] | 0.13
GGCCGGCAUGGUCCCAGCUACCUCGCUGGCGCCGGCUGGGCAACAUUCCGAGGGGACCGUCCCCUCGGUAAUGGCGAAUGGGACCCA [C19U U20A] | 0.149
GGCCGGCAUGGUCCCAGCUUCCUCGCUGGCGCCGGCUGGGCAACAUUCCGAGGGGACCGUCCCCUCGGUAAUGGGGAAUGGGACCCA [C19U C75G] | 0.0739
GGCCGGCAUGGUCCCAGCUUUCUCGCUGGCGCCGGCUGGGCAACAUUCCGAGGGGACCGUCCCCUCGGUAAUGGCGAAUGGGACCCA [C19U C21U] | 0.0378
GGCCGGCAUGGUCCCAGCGUCCUCGCUGGCGCCGGCUGGGCAACAUUCCGAGGGGACCGUCCCCUCGGUAAUGGCGAAGGGGACCCA [C19G U79G] | 0.222
GGCCGGCAUGGUCCCAGCUUCCUCGCUGGCGCCGGCUGGGCAACAUUCCGAGGGGACCGUCCCCUCUGUAAUGGCGAAUGGGACCCA [C19U G67U] | 0.145
GGCCGGCAUGGUCCCAGCUUCCUCGCUGGCGCCGGCUGGGCAACAUUCCGAGGGGACCGUCCCCUAGGUAAUGGCGAAUGGGACCCA [C19U C66A] | 0.182
GGCCGGCAUGGUCCCAGCUUCCUCGCUGGCGCCGGCUGGGCAACAUUCCGAGGGGACCGUCCCCUUGGUAAUGGCGAAUGGGACCCA [C19U C66U] | 0.22
GGCCGGCAUGGUCCCAGCCACCUCGCUGGCGCCGGCUGGGCAUCAUUCCGAGGGGACCGUCCCCUCGGUAAUGGCGAAUGGGACCCA [U20A A43U] | 0.0386

Variant | self-cleavage
GGCCGGCAUGGUCCCAGCGUCCUCGCUGGCGCCGGCUGGGCAACAUUCCGAGGGGACCGCCCCCUCGGUAAUGGCGAAUGGGACCCA [C19G U60C] | 0.0627
GGCCGGCAUGGUCCCAGCGUCCUCGCUGGCGCCGGCUGGGCAACAUUCCGAGGGGACCGGCCCCUCGGUAAUGGCGAAUGGGACCCA [C19G U60G] | 0.0405
GGCCGGCAUGGUCCCAGCGUCCUCGCUGGCGCCGGCUGGGCAACAUUCCGAGGGGACCGACCCCUCGGUAAUGGCGAAUGGGACCCA [C19G U60A] | 0.0959
GGCCGGCAUGGUCCCAGCUUCCUCGCUGGCGCCGGCUGGGCAACAUUCCGAGGGGACCUUCCCCUCGGUAAUGGCGAAUGGGACCCA [C19U G59U] | 0.194
GGCCGGCAUGGUCCCAGCUUCCUCGCUGGCGCCGGCUGGGCAACAUUCCGAGGGGACCCUCCCCUCGGUAAUGGCGAAUGGGACCCA [C19U G59C] | 0.205
GGCCGGCAUGGUCCCAGCGUCCUCGCUGGCGCCGGCUGGGCAACAUUCCGAGGGGACCGUCCCCUCGGUAAUGGCCAAUGGGACCCA [C19G G76C] | 0
GGCCGGCAUGGUCCCAGCUUCCUCGCUGGCGCCGGCUGGGCAACAUUCCGAGGGGACCGUUCCCUCGGUAAUGGCGAAUGGGACCCA [C19U C61U] | 0.0898
GGCCGGCAUGGUCCCAGCGUCCUCGCUGGCGCCGGCUGGGCAACAUUCCGAGGGGACCGUCCCCUCGGUAAAGGCGAAUGGGACCCA [C19G U72A] | 0.0563
GGCCGGCAUGGUCCCAGCGUCCUCGCUGGCGCCGGCUGGGCAACAUUCCGAGGGGACCGUCCCCUCGGUAAGGGCGAAUGGGACCCA [C19G U72G] | 0
GGCCGGCAUGGUCCCAGCUUCCUCGCUGGCGCCGGCUGGGCAACAUUCCGAGGGGACCGUCCCCUCGGCAAUGGCGAAUGGGACCCA [C19U U69C] | 0.0997
GGCCGGCAUGGUCCCAGCGUCCUCGCUGGCGCCGGCGGGGCAACAUUCCGAGGGGACCGUCCCCUCGGUAAUGGCGAAUGGGACCCA [C19G U37G] | 0.111
GGCCGGCAUGGUCCCAGCUUCCUCGCUGGCGCCGGCUGGGCAACAUUCCGAGGGGACCGUCCCCUCGGUAAUGGCGAAUGGGAUCCA [C19U C84U] | 0.0811
GGCCGGCAUGGUCCCAGCUUCCUCGCUGGCGCCGGCUGGGCAACAUUCCGAGGGGACCGUCCCCUCGGUAAUGGCGAAUGGGAACCA [C19U C84A] | 0.0554
GGCCGGCAUGGUCCCAGCUUCCUCGCAGGCGCCGGCUGGGCAACAUUCCGAGGGGACCGUCCCCUCGGUAAUGGCGAAUGGGACCCA [C19U U27A] | 0.332
GGCCGGCAUGGUCCCAGCUUCCUCGCCGGCGCCGGCUGGGCAACAUUCCGAGGGGACCGUCCCCUCGGUAAUGGCGAAUGGGACCCA [C19U U27C] | 0.135
GGCCGGCAUGGUCCCAGCUUCCUCGCUGGCGCCGGCUGGGCAACAUUCCGAGGGGACCGUCCCCUCGGUAAUGGCGAAUGUGACCCA [C19U G81U] | 0.131
